Results reported in US20160145328A1 (published 2016).
Numbering of substitutions follows the chain as printed. Names and notes keep the numbering of the source.

B1: DP47 VH A33D (other, name in Kabat numbering)
VH: QVQLLESGGGLVQPGGSLRLSCAASGFTFSSYDMSWVRQAPGKGLEWVSAISGSGGSTYYADSVKGRFTISRDNSKNTLYLQMNSLRAEDTAVYYCAKSYGAFDYWGQGTLVTVSS
B2: DP47 VH A33E (other, name in Kabat numbering)
VH: B1 VH with D33E
B3: DP47 VH Q39E (other, name in Kabat numbering)
VH: B1 VH with D33A, Q39E
B4: DP47 VH S31D (other, name in Kabat numbering)
VH: B1 VH with S31D, D33A
B5: DP47 VH Q39D (other, name in Kabat numbering)
VH: B1 VH with D33A, Q39D
B6: DP47 VH S35D (other, name in Kabat numbering)
VH: B1 VH with D33A, S35D
B7: DP47 VH S31E (other, name in Kabat numbering)
VH: B1 VH with S31E, D33A
B8: DP47 VH S30D (other, name in Kabat numbering)
VH: B1 VH with S30D, D33A
B9: DP47 VH G26E (other, name in Kabat numbering)
VH: B1 VH with G26E, D33A
B10: DP47 VH A40D (other, name in Kabat numbering)
VH: B1 VH with D33A, A40D
B11: DP47 VH Y32E (other, name in Kabat numbering)
VH: B1 VH with Y32E, D33A
B12: DP47 VH A40E (other, name in Kabat numbering)
VH: B1 VH with D33A, A40E
B13: DP47 VH G26D (other, name in Kabat numbering)
VH: B1 VH with G26D, D33A
B14: DP47 VH S35E (other, name in Kabat numbering)
VH: B1 VH with D33A, S35E
B15: DP47 VH T28E (other, name in Kabat numbering)
VH: B1 VH with T28E, D33A
B16: DP47 VH T28D (other, name in Kabat numbering)
VH: B1 VH with T28D, D33A
B17: DP47 VH S30E (other, name in Kabat numbering)
VH: B1 VH with S30E, D33A
B18: DP47 VH Y32D (other, name in Kabat numbering)
VH: B1 VH with Y32D, D33A
B19: DP47 VH T28R (other, name in Kabat numbering)
VH: B1 VH with T28R, D33A
B20: DP47 VH S35G (other, name in Kabat numbering)
VH: B1 VH with D33A, S35G
B21: DP47 VH S53D (other, name in Kabat numbering)
VH: B1 VH with D33A, S54D
B22: DP47 VH A50D (other, name in Kabat numbering)
VH: B1 VH with D33A, A50D
B23: DP47 VH G54D (other, name in Kabat numbering)
VH: B1 VH with D33A, G55D
B24: DP47 VH S52D (other, name in Kabat numbering)
VH: B1 VH with D33A, S52D
B25: DP47 VH T28D + S35D (other, name in Kabat numbering)
VH: B1 VH with T28D, D33A, S35D
B26: DP47 VH S35D + S31D (other, name in Kabat numbering)
VH: B1 VH with S31D, D33A, S35D
B27: DP47 VH T28D + S30D (other, name in Kabat numbering)
VH: B1 VH with T28D, S30D, D33A
B28: DP47 VH S35D + S30D (other, name in Kabat numbering)
VH: B1 VH with S30D, D33A, S35D
B29: DP47 VH T28D + S31D (other, name in Kabat numbering)
VH: B1 VH with T28D, S31D, D33A
B30: DP47 VH T28D + Y32D (other, name in Kabat numbering)
VH: B1 VH with T28D, Y32D, D33A
B31: DP47 VH T28D + A33D (other, name in Kabat numbering)
VH: B1 VH with T28D
B32: DP47 VH S35D + A33D (other, name in Kabat numbering)
VH: B1 VH with S35D
B33: DP47 VH S35D + Y32D (other, name in Kabat numbering)
VH: B1 VH with Y32D, D33A, S35D

target: T1, protein A (UniProt P38507 37-477); assay: Heat/Cool phage ELISA: phage-displayed VH, 80 C 10 min then 4 C 10 min, captured on coated protein A; signal as % of untreated sample
T1 construct: also called Protein A superantigen
Procedure: (§1) The aggregation-resistance of clones was analyzed by measuring retention of signal after heat incubation in a phage ELISA format (McCafferty et al., 1990; Jespers et al., 2004). Wells of a Nunc Maxisorp Immuno-plate were coated overnight with protein A at a concentration of about 5 μg/ml in phosphate-buffered saline (PBS). The plate was washed once with PBS and blocked with about 4% (w/v) milk powder diluted in PBS (MPBS). Single colonies were picked from agar plates and grown overnight in 2×TY medium (containing about 16 g/L tryptone; about 10 g/L yeast extract; about 5 g/L NaCl, pH 7.0) supplemented with about 15 μg/ml tetracycline shaking at about 30° C. Cells were removed by centrifugation and phages were biotinylated directly in the culture supernatant by adding biotin-PEO₄-N-hydroxysuccinimide (Pierce; about 50 μM final concentration). For heat selection, supernatant was first incubated at about 80° C. for about 10 min and then at about 4° C. for about 10 min. Supernatant was added to the blocked ELISA wells. After three washes with PBS, bound phage particles were detected using an Extravidin-HRP conjugate (Sigma) and 3,3′,5,5′-tetramethylbenzidine (TMB) substrate. Absorbance was calculated by subtracting measurements at 450 and 650 nm.
To identify additional residues in CDR1 that confer aggregation-resistance on VH, surface-exposed residues of DP47 between positions 26 to 35 (numbering according to the Kabat numbering system) were substituted for aspartic acid (D) or glutamic acid (E). Framework residues at positions 39 and 40 were also substituted for aspartic acid (D) or glutamic acid (E). […] Correctly folded VH were captured by protein A ELISA and the absorbance signal of the treated sample was calculated as a percentage of the untreated sample.

Going from B1 to B2, the “Retained binding to protein A (%)” value falls from 10% to 2%.

Compared with B3, B4 is higher in “Retained binding to protein A (%)” value: 2.5% for the first, 21.3% for the second.

First: B5
Second: B6
The “Retained binding to protein A (%)” value of the first is lower: 3.7% for the first, 12.8% for the second.

First: B7
Second: B8
The “Retained binding to protein A (%)” value of the first is lower: 6.1% for the first, 21.8% for the second.

Going from B9 to B10, the “Retained binding to protein A (%)” value rises from 1.8% to 2.8%.

First: B11
Second: B12
The “Retained binding to protein A (%)” value of the first is higher: 24.8% for the first, 1.9% for the second.

Going from B13 to B14, the “Retained binding to protein A (%)” value falls from 6.1% to 4.5%.

First: B15
Second: B16
The “Retained binding to protein A (%)” value of the first is lower: 6.5% for the first, 25.1% for the second.

Compared with B17, B18 is higher in “Retained binding to protein A (%)” value: 2.1% for the first, 41.8% for the second.

target: T1, protein A; assay: as above; remark: another data set of the same source
Procedure: as §1
Single amino acid changes in the CDR1 region of the DP47 VH domain, and combinations thereof, were constructed and tested for aggregation-resistance, as detailed above (see the Materials and Methods section). […] Correctly folded VH were captured by protein A ELISA and the absorbance signal of the treated sample was calculated as a percentage of the untreated sample.

Compared with B1, B19 is lower in “Retained binding to protein A” value: 26% for the first, 2% for the second.

Going from B4 to B11, the “Retained binding to protein A” value rises from 31% to 41%.

For B20, the “Retained binding to protein A” value was 4%.

target: T1, protein A; assay: as above; remark: another data set of the same source
Procedure: as §1
To identify residues in CDR2 that confer aggregation-resistance on a VH containing protein aspartic acid (D) was substituted for surface-exposed residues within the putative CDR2 of DP47 VH with aspartic acid (positions 50, 52, 52a, 53, 54).

Going from B21 to B22, the “Retained binding to protein A (%)” value falls from 3.8% to 2.9%.

Going from B23 to B24, the “Retained binding to protein A (%)” value rises from 1.3% to 3.9%.

target: T1, protein A; assay: as above; remark: another data set of the same source
Procedure: as §1
VH domains were produced comprising negatively charged amino acids at positions 28 and/or 35 in CDR1 of DP47 and at least one other position, as set out in Table 7. Aggregation-resistance of the VH domains was assessed using the “Heat/Cool” assay as described in Example 1.2.

Going from B25 to B26, the “Retained binding to protein A (%)” value rises from 45.8% to 48.3%.

Going from B27 to B28, the “Retained binding to protein A (%)” value rises from 39.4% to 43.5%.

Going from B29 to B30, the “Retained binding to protein A (%)” value rises from 44.8% to 64.7%.

Going from B31 to B32, the “Retained binding to protein A (%)” value falls from 62% to 40.3%.

For B33, the “Retained binding to protein A (%)” value was 61%.
